# Data: US20240124857A1, “COMPOSITION FOR GUT HEALTH” (DUPONT NUTRITION BIOSCIENCES APS, priority 2021, published 2024)
# Columns and labels:
# [1] = Enzyme activity towards ATP at pH 3 to 9 (malachite green phosphate detection); format: biochemical; settings: FIG. 1; 250 μM ATP, 5 mM CaCl2, pH 3 to 9
# Method: (§1) Enzyme activity towards ATP or ADP at pH 3 to 9: The ability of candidate enzymes to degrade ATP or ADP to AMP and free phosphate (Pi) was measured using a standard malachite green phosphate detection kit (Sigma Aldrich cat no. MAK307). The enzyme reactions were carried out in 96-well plates with a total volume of 150 μL and contained 250 μM of a substrate, 50 mM of a buffer, 5 mM CaCl2, and a variable concentration of enzyme. The substrate was ATP or ADP. The buffer was glycine (pH 3), acetate (pH 4, 4.5, 5), bis-Tris (pH 5.5, 6, 6.5), or Tris (pH 7, 8, 9). The concentration of enzyme varied from about 1 μg/mL to 1 ng/mL and was adjusted based on the activity of the enzyme so that the amount of phosphate released during the assay was with the dynamic range of the assay (5-100 μM phosphate). The enzyme concentration was determined by the absorbance at 280 nm and using the predicted molecular weight and molar extinction coefficient to calculate the concentration. […] The malachite green reaction mixture was allowed to rest at room temperature for 45-60 min and the absorbance at 620 nm was measured. Lastly, the absorbance of the phosphate standards were used to convert the absorbance readings of each sample into phosphate concentrations and the negative control was subtracted from each reaction.
# [2] = Enzyme activity towards ADP at pH 3 to 9 (malachite green phosphate detection); format: biochemical; settings: FIG. 2; 250 μM ADP, 5 mM CaCl2, pH 3 to 9
# Method: as §1
# [3] = Enzyme acid resistance: residual activity on ATP after incubation at pH 2; format: physicochemical; settings: 60 min in acid buffer, 50 mM glycine, 5 mM CaCl2; FIG. 4
# Method: Enzyme acid resistance: Candidate enzymes were tested for their ability to resist inactivation at low pH by incubating the enzymes in an “acid buffer” of 50 mM glycine and 5 mM CaCl2 at pH 2 for 15 or 60 minutes and comparing their activity to enzymes in a “control buffer” at their optimum pH. The optimum buffer for CRC21323 and CRC21322 was 50 mM acetate pH 4.5 with 5 mM CaCl2. The optimum buffer for all other enzymes was 50 mM bis-Tris pH 6.5 with 5 mM CaCl2. After incubating in the acidic glycine buffer, the enzyme mixtures were neutralized by mixing with an equal volume of neutralization buffer. The neutralization buffer for CRC21323 and CRC21322 was 100 mM acetate and 10 mM CaCl2 at pH 4.5. The neutralization buffer for the other enzymes was 100 mM bis-Tris and 10 mM CaCl2 at pH 6.5. Next, the acid-stressed and control enzyme were tested for their ability to release phosphate from ATP using the reaction conditions and malachite green assay as described in with the following changes. The only substrate tested was ATP. CRC21323 and CRC21322 were tested with a buffer of acetate pH 4.5, but all other enzymes were tested in a buffer of bis-Tris pH 6.5. After determining the concentration of phosphate in each reaction, the residual activity of each enzyme after 15 or 60 min incubation in the “acid buffer” was calculated by dividing the acid-stressed by the control enzyme phosphate concentrations for each enzyme.
# [4] = tested on: Acute DSS colitis in C57BL/6 mice; experiment: Chemically-induced DSS colitis mouse model, disease activity index (DAI); format: in vivo
# Text: Acute DSS colitis was induced in C57BL/6 mice according to the previously published method with minor modification (Sann et al., 2013, Life Sci. April 9; 92(12):708-18). The mice were fed 3% (w/v) DSS dissolved in the drinking water on day one to day five. Fresh DSS solution was provided every other day. Control mice (Group 1) drank only distilled water. Groups 4 to 8 received candidate acid phosphatase enzymes by oral gavage and groups 9 to 12 received enzymes via catheter (Table 2). DAI was calculated as described earlier (Cooper et al., 1993, Laboratory investigation; a journal of technical methods and pathology. 69(2):238-49).
# Apc/minJ mice = experiment: Antibiotic-induced gut inflammation in Apc/minJ mice: DAI, colon length, histopathology; format: in vivo; settings: antibiotics cocktail, 10 μg/dose oral gavage
# Method: (§2) Apc/minJ mice have a mutated adenomatous polyposis coli gene and are more prone to develop colitis and tumors. In this Example, and using this model, 6-7 weeks old mice were subjected to an antibiotics cocktail of vancomycin, ampicillin, and neomycin (1 mg/mL) for 7 days in drinking water in order to induce a gut inflammatory response. Control mice (Groups 1 and 2) drank only distilled water. Groups 4 and 6 received CRC22110 ay 10 μg/dose enzyme by oral gavage and groups 5 and 6 received human microbiota transplant (HMT) by gavage. HMT was prepared by inoculating fecal sample from a healthy human donor in 20 ml of YCFAC media. Culture was grown anaerobically for 16 hrs at 37° C. Cells were collected by centrifugation and washed with PBS. Cells were resuspended in 10% glycerol and cell numbers were estimated by plating on YCFAC agar plates.
# Disease Severity: Disease severity was scored using a clinical disease activity index (DAI), calculated as previously described using the following parameters: stool consistency, presence or absence of fecal blood and weight loss (Cooper et al., 1993, Laboratory investigation; a journal of technical methods and pathology. 69(2):238-49). The mice were killed on days 12 and 16, colons were measured, and the tissue was prepared for histopathological studies. The colon was fixed in 10% formaldehyde-saline. Hematoxylin and eosin stain (HE)-stained sections are graded based on a scoring system adapted from Burich et al., 2001, Am. J. Physiol. Gastrointest. Liver Physiol. 281:G764-G778 and Hausmann et al., 2007, Clin Exp Immunol. 2007 May; 148(2):373-81. Histology scoring is performed, and a combined score of inflammatory cell infiltration and tissue damage is determined for all the groups.
# [5] = tested on: commensals from HMT in Apc/minJ mice; experiment: Engraftment of human microbiota transplant (HMT) commensals, 16S sequencing of day 13 fecal samples; format: in vivo; settings: group 6 (Ab + HMT + Enz) compared with group 5 (Ab + HMT); FIG. 11
# Method: as §2, with “plates. Promotion of Engraftment: Fecal samples were collected from each mouse per day. Day 13 fecal samples were processed and 16S sequencing was done to evaluate the structure of microbiome. Group 5 was compared with group 6 and engraftment of HMT was evaluated.[…]” for “plates.”
# [6] = ATPase activity at 0.05 ppm enzyme on 0.1 mM ATP (absorbance 620 nm); format: biochemical
# Outline: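 Enzyme at 0.05 ppm with 0.1 mM ATP in 50 mM MES buffer, pH 6 and pH 5, with 5 mM CaCl2; reaction stopped after 5 min. Released phosphate detected by malachite green at 620 nm, water blank subtracted.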
# [7] = Relative activity on ATP of CRC22110 single-site variants; format: biochemical; settings: in comparison to CRC22110 wild type
molecule,measurement,setting,value
"CRC22110: GDA1/CD39 family enzyme, accession EKE69473.1, SEQ ID NO:9 (predicted mature), SEQ ID NO:1 (protein, listed as Gallaecimonas xiamenensis) ADKPACRAVFDAGSSGTRLFLYVQQEGGWQPWPGAKLGALADPVRQHQGPKAMAALAADLANSLEALRQDGPTNSEGQPRWQGFDWQQACRLQSVSVLATAGMRLAEQQDPVASVALWQEVQQALAGLLGPAVAIDARTLTGFEEGFYAWLAARARLGRSDMGIVEMGGASSQVAFPCPACDRADDAVQQVRLEGQTLDFYSYSFLGLGQDEAPKVLGVPHACRYGAGVKDPNWQLGQCQAQLPLTLGRALKDPYNFQGQGQGGYRQVPTEKAGVKDWLLTGAFQYNTPDQLDSCCLNQGQCYQPSTACFRVAYLPLYLDSLGVDPHSPDLDVSWTLGAVLCRNEQCLAPSKPPCRWRKAGCLAPSVGDGRPEGRPGQQPGGVQHRQH",specific activity on ATP over a range of pHs,[1],most active enzyme
same,specific activity on ADP over a range of pHs,[2],most active enzyme
same,residual activity after incubation at pH 2,[3],greatest resistance
same,reduction in DAI score compared to control,"[4]; catheterized mice, test items via cecum BID, FIG. 6A, 6B",47%
same,DAI score compared to CRCO2733,"[4]; non-catheterized mice, oral gavage BID, FIG. 5A, 5B",significant reduction
same,improvement in DAI score compared to control,Apc/minJ mice; FIG. 8,25%
same,colon length compared to control,Apc/minJ mice; FIG. 9,significant improvement
same,focal hyperplasia in the colon (histopathologic analysis),Apc/minJ mice; FIG. 10,absent
same,engraftment of commensals from HMT,[5],better engraftment of several commensals from HMT
same,"Activity on ATP (absorbance at 620 nm, blank subtracted), pH 5.0",[6]; 50 mM IVIES buffer pH 5,0.60
same,"Activity on ATP (absorbance at 620 nm, blank subtracted), pH 6.0",[6]; 50 mM IVIES buffer pH 6,0.37
same,Relative activity (%) on ATP,[7],100%
